Laboratory results published in publication PMC11907795.

Biological target: PthA4-His (Xanthomonas citri subsp. citri (strain …, UniProt A0AAI8ETU3 1-1163))
Experiment: EMSA; poly dI-dC; unlabeled competitor 1x-800x
Details: protein: recombinant; tags: His (N-terminal, pET28a); label: Cy5; blunt

B1: ProCsGRAS9 (dsDNA)
DNA 1: TATATACATACACACACACACACACACACATAT
DNA 2: ATATGTGTGTGTGTGTGTGTGTGTATGTATATA
Question: Does B1 bind?
Answer: binds
